Test results reported in article PMC6771872, “Fast‐acting insulin aspart in people with type 2 diabetes: Earlier onset and greater initial exposure and glucose‐lowering effect compared with insulin aspart” (Diabetes, Obesity & Metabolism, 2019).

Experiments:
Assay type in all cases: in vivo, human
[1] = tested on: people with type 2 diabetes; assay: Euglycaemic glucose clamp, glucose infusion rate (glucose-lowering effect); conditions: people with T2D, single s.c. 0.3 U/kg, n = 56 faster aspart, 59 IAsp
Protocol: Participants arrived at the clinical site at 4:30 PM the day before dosing, were served a standardized meal and started fasting from 7:00 PM. In order to assess the pharmacodynamics of faster aspart and IAsp, a euglycaemic glucose clamp was conducted with an overnight run‐in period starting at 10:00 PM. Participants received a variable intravenous infusion of human insulin [40 IU Actrapid® 100 IU/mL (Novo Nordisk) in 99.6 mL saline] or 20% glucose to obtain the plasma glucose (PG) target concentration of 5.0 mmol/L. The trial product was administered between 8:00 AM and 10:00 AM the next morning after PG had stabilized for ≥1 hour with minimum insulin infusion and no glucose infusion. At the time of dosing, any infusion of intravenous insulin was terminated. After PG had declined by 0.3 mmol/L (defined as onset of action), a variable intravenous glucose infusion was initiated to keep PG at the target throughout the clamp. The clamp continued for up to 12 hours after dosing, but was terminated if PG was consistently ≥11.1 mmol/L, with no requirement for intravenous glucose infusion during the previous 30 minutes. The individual clamps were performed with similar high quality across both treatments (Figure S1 and Table S1 in Appendix S1).11
Measurement of PG concentrations during the glucose clamp was performed with a SuperGL 2 glucose analyser (Dr Müller Gerätebau GmbH, Freital, Germany) using an electrochemical method.
(§1) All pharmacokinetic and glucose infusion rate (GIR) endpoints to assess onset of exposure and glucose‐lowering effect, initial IAsp exposure and glucose‐lowering effect, offset of exposure and glucose‐lowering effect, and overall exposure and glucose‐lowering effect were defined and derived as previously described.5 In a blinded review of pharmacokinetic profiles, it was observed that selected profiles had pre‐dose values above the LLOQ and stayed above the LLOQ for the entire sampling period. It was therefore decided to baseline‐correct these profiles using a baseline value derived as the mean of all pre‐dose samples. After baseline correction, all pre‐dose values and negative values were set to zero. All pharmacokinetic endpoints for the baseline‐corrected profiles were derived in the same way as those for the non‐baseline‐corrected profiles.

[2] = tested on: people with type 2 diabetes; assay: Suppression of serum free fatty acid (FFA) concentration after dosing; conditions: people with T2D, single s.c. 0.3 U/kg
Protocol: Serum free fatty acid (FFA) concentrations were measured using a Wako NEFA assay (Wako Diagnostics, Mountain View, California), performed on a Roche Cobas C501 analyser (Roche Diagnostics GmbH, Mannheim, Germany).
The suppression of serum FFA concentration initially after dosing was determined by calculating the area over the baseline‐corrected serum FFA concentration‐time curve during the first hour (ΔAOCFFA,0‐1 h) and the first 2 hours (ΔAOCFFA,0‐2 h) as well as the time to reach 50% of the maximum FFA decline in the initial part of the FFA profile (t50% max FFA decline). Furthermore, the minimum FFA concentration (FFAmin) was derived.
Statistical analyses were performed using SAS version 9.4 (SAS Institute, Cary, North Carolina). All endpoints were compared between faster aspart and IAsp using a linear mixed model, with treatment and period as fixed effects and participant as a random effect. The P value for the two‐sided test of no treatment difference using a significance level of 5% was estimated from the model. For FFA endpoints, baseline FFA was included as a covariate. […] Least squares means for each treatment, treatment ratios and 95% confidence intervals (CIs) were calculated on the original scale. All other endpoints were analysed on a linear scale: least squares means for each treatment, treatment differences and 95% CIs were estimated. Treatment ratios and 95% CIs were determined according to Fieller's method.14

[3] = Serum IAsp pharmacokinetics after single subcutaneous dose (IAsp-specific ELISA); conditions: people with T2D, single s.c. 0.3 U/kg, 59 IAsp
From the text: At the two dosing visits, participants received single dosing of 0.3 U/kg faster aspart (100 U/mL; Novo Nordisk, Bagsværd, Denmark) or IAsp (NovoRapid® 100 U/mL; Novo Nordisk) in a randomized sequence. Both trial products were provided in blinded PDS290 pen‐injector prefilled pens (Novo Nordisk) and administered subcutaneously in a lifted skin fold of the lower abdominal wall above the inguinal area. Use of current insulin was terminated in due time to allow washout before faster aspart and IAsp administration.
Blood sampling for pharmacokinetics was performed frequently from 2 minutes prior to dosing until 12 hours post‐dose (Table S2 in Appendix S1).
A validated IAsp‐specific enzyme‐linked immunosorbent assay with a lower limit of quantification (LLOQ) of 10 pmol/L was used to measure free serum IAsp concentrations following polyethylene glycol precipitation.
as §1

[4] = tested on: people with type 2 diabetes; assay: Safety assessments (adverse events, hypoglycaemic episodes, injection site reactions); conditions: single s.c. 0.3 U/kg
From the text: Safety assessments included adverse events (AEs), hypoglycaemic episodes, injection site reactions, laboratory safety measures, physical examination, vital signs and ECG. AEs were defined as treatment‐emergent if they had onset within the period from time of trial product administration until 7 days later. Hypoglycaemic episodes were classified according to the American Diabetes Association12 and in addition defined as “confirmed” if documented by PG <3.1 mmol/L with or without symptoms consistent with hypoglycaemia. Hypoglycaemic episodes were defined as treatment‐emergent if they had onset between the time of trial product administration and the subsequent administration of any insulin; however, these should occur no longer than 16 hours after trial product administration.

[5] = euglycaemic clamp, LS mean ± SE
[6] = LS mean ± SE, n = 56 faster aspart, 58 IAsp

Substance: insulin aspart [IAsp]
- tLate 50% GIRmax (time to 50% of maximum GIR in the late part of the GIR profile) ([1]; offset of glucose-lowering effect, LS mean): 297.7 min
- AUCGIR,0-t (total glucose-lowering effect) ([1]; clamp up to 12 hours, LS mean): 904 mg/kg
- Onset of action (PG decline by 0.3 mmol/L) ([1]; euglycaemic clamp target 5.0 mmol/L, LS mean ± SE): 31.3 ± 1.4 min
- tEarly 50% GIRmax (time to 50% of maximum GIR in the initial part of the GIR profile) [1, 5]: 51.1 ± 2.3 min
- tGIRmax (time to maximum glucose infusion rate) [1, 5]: 155.6 ± 8.7 min
- AUCGIR,0-30min LS Mean ([1]; euglycaemic clamp, LS mean): 7.0 mg/kg
- AUCGIR,0-1h LS Mean ([1]; euglycaemic clamp, LS mean): 67 mg/kg
- AUCGIR,0-1.5h LS Mean ([1]; euglycaemic clamp, LS mean): 127 mg/kg
- AUCGIR,0-2h LS Mean ([1]; euglycaemic clamp, LS mean): 210 mg/kg
- AUCGIR,2-t (partial area under the GIR profile from 2 hours) ([1]; LS mean): 681 mg/kg
- GIRmax (maximum glucose infusion rate) ([1]; LS mean): 3.9 mg/kg/min
- t50% max FFA decline (time to reach 50% of the maximum decline in FFA) [2, 6]: 50.0 ± 2.3 min
- ΔAOCFFA,0-1 h (area over the baseline-corrected FFA curve, first hour) [2, 6]: 0.09 ± 0.01 mmol·h/L
- ΔAOCFFA,0-2 h (area over the baseline-corrected FFA curve, first 2 hours) [2, 6]: 0.38 ± 0.02 mmol·h/L
- Mean minimum FFA concentration (FFAmin) ([2]; mean ± spread as printed): 0.08 ± 0.05 mmol/L
- tLate 50% Cmax (time to 50% of maximum IAsp concentration in the late part of the PK profile) ([3]; offset of exposure, LS mean, n = 56 faster aspart): 237.8 min
- Onset of appearance ([3]; free serum IAsp by ELISA, LS mean ± SE, n = 56 faster aspart): 4.4 ± 0.3 min
- AUCIAsp,0-t (total IAsp exposure) ([3]; sampling until 12 hours, LS mean, n = 56 faster aspart): 1.403 nM·h
- tmax (time to maximum IAsp concentration) ([3]; LS mean ± SE, n = 55 faster aspart): 1.45 ± 0.0867 h
- tEarly 50% Cmax (time to 50% of maximum IAsp concentration in the initial part of the PK profile) ([3]; LS mean ± SE, n = 56 faster aspart): 27.9 ± 1.0 min
- AUCIAsp,0-15min LS Mean ([3]; LS mean, n = 56 faster aspart): 0.0074 nM·h
- AUCIAsp,0-1h LS Mean ([3]; LS mean, n = 56 faster aspart): 0.189 nM·h
- AUCIAsp,0-1.5h LS Mean ([3]; LS mean, n = 56 faster aspart): 0.355 nM·h
- AUCIAsp,0-2h LS Mean ([3]; LS mean, n = 56 faster aspart): 0.516 nM·h
- AUCIAsp,2-t (partial area under the serum IAsp profile from 2 hours) ([3]; LS mean, n = 56 faster aspart): 0.841 nM·h
- Cmax (maximum IAsp concentration) ([3]; LS mean, n = 56 faster aspart): 0.384 nM
- AUCIAsp,0-30min LS Mean ([3]; primary endpoint, LS mean, n = 56 faster aspart): 0.042 nM·h
- Injection site reactions or treatment-emergent hypoglycaemic episodes ([4]; people with T2D): no injection site reactions or treatment‐emergent hypoglycaemic episodes were reported
- Tolerability ([4]; people with T2D): well tolerated
- Number of treatment-emergent AEs ([4]; safety analysis set 61 participants with T2D, onset within 7 days of dosing): 11
